In paper PMC7335806, “Molecular mechanisms that regulate export of the planar cell-polarity protein Frizzled-6 out of the endoplasmic reticulum” (The Journal of Biological Chemistry, 2020):

Experiments:
Experiment in all cases: pull-down; peptides (5 nmol) covalently coupled to thiopyridone-Sepharose 6B beads via the C-terminal cysteine; 2 μg purified His-tagged Sar1A preincubated with 500 μM GTPγS in HK buffer (100 mM KCl, 20 mM Hepes pH 7.2); 1 h at 4 °C; immunoblotting
Conditions in all cases: both partners purified
[1] = molecular target: T1, Sar1A (Δ2-17, H79G, D198A) (human, UniProt Q9NR31 10-198, Δ2-17 | H79G | D198A)
T1 construct: Sar1A, human, Δ2-17, H79G with D198A; preincubated with GTPγS; also called Sar1A bearing the D198A mutation; source: recombinant, purified
T1 sequence (Q9NR31 18-198 H79G/D198A): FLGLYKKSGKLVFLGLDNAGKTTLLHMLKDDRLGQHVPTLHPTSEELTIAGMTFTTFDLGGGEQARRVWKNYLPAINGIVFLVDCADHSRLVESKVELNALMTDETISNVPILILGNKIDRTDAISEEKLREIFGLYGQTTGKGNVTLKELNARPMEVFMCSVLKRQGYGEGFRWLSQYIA

[2] = molecular target: T2, His-tagged human Sar1A^(Δ2-17, H79G) (human, UniProt Q9NR31 10-198, Δ2-17 | H79G)
T2 construct: Sar1A, human, H79G, depleted of its N-terminal amphipathic helix (Δ2-17); preincubated with GTPγS; also called Sar1A^(Δ2-17, H79G)-His; Sar1A (Δ2-17, H79G)-His; source: recombinant (cloned into pET-28a), purified; not shown: His, C-terminal, kept
T2 sequence (Q9NR31 18-198 H79G): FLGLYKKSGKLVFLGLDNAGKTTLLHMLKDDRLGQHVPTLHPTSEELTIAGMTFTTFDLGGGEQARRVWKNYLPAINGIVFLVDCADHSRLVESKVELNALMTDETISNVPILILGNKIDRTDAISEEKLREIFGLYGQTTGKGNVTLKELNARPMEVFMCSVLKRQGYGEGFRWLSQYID

[3] = molecular target: T3, Sar1A (Δ2-17, E62A, E63A, H79G) (human, UniProt Q9NR31 10-198, Δ2-17 | E62A | E63A | H79G)
T3 construct: Sar1A, human, Δ2-17, H79G with E62A and E63A; preincubated with GTPγS; also called Sar1A (Δ2-17, H79G, E62A, E63A)-His; source: recombinant, purified; not shown: His, C-terminal, kept
T3 sequence (Q9NR31 18-198 E62A/E63A/H79G): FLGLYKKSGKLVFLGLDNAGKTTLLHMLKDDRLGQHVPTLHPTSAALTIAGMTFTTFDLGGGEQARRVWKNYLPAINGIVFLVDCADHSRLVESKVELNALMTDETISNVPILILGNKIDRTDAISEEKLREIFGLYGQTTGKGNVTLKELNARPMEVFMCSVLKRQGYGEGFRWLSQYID

Measured: binding result

B1: RRFR peptides (first intracellular loop of Fzd6) (peptide)
peptide: VRRFRYPERPC
notes: first intracellular loop of Fzd6 with the polybasic motif RRFR; added C-terminal cysteine residue, used to couple the peptide to thiopyridone-Sepharose 6B beads; Covalently linked to thiopyridone-Sepharose 6B through the added C-terminal cysteine; source: synthetic peptide, bought: GenScript
binds: all assays above
